Measurements from patent US20240124568A1, “CHEMERIN INHIBITORS AND USES THEREOF FOR TREATING KIDNEY CANCER” (University of Miami, priority 2022, published 2024).
“Also recorded” adds a separate entry of the source.

Columns and labels:
[1] = test system: chemerin-knockdown 786-O cells; assay: Cell proliferation assay, rescue in chemerin-knockdown 786-O cells; format: cell-based, human
Procedure: Cell Proliferation Assay. Cells were plated at a density of 100,000 cells in triplicate wells of a 6-well plate, supplemented with DMEM containing 10% FBS. Cells were trypsinized and were counted using the Cell Counter Countess II (Life Technologies) at days 3, 6, 9 and 12.

786-O and 769-P cells = assay: EdU incorporation assay (DNA synthesis); format: cell-based, human; conditions: chemerin-knockdown 786-O cells, etomoxir 50 μM and 100 μM, EdU flow cytometry
Procedure: EdU incorporation assay. […] After incubation, the cells were fixed with 3.7% formaldehyde/PBS for 15 minutes at room temperature and washed with 1 mL of 3% BSA/PBS twice. 1 mL of 0.5% TritonX-100 in PBS was added for 20 minutes at room temperature to permeabilize the cells. Next, cells were incubated with 0.5 mL of Click-iT reaction cocktail (Invitrogen, Cat #C10337) prepared according to manufacturer's instructions, at room temperature for 30 minutes and away from direct light. DAPI (Millipore, Cat #268298) was added later for DNA staining. […]

HIF2α mRNA in 786-O = assay: qRT-PCR of HIF1α and HIF2α after fatty acid incubation; format: cell-based, human; conditions: 500 μM fatty acid for 24 hours
Procedure: RNA Isolation and Real Time Quantitative Polymerase Chain Reaction (qRT-PCR). Total RNA was extracted using TRIzol reagent (Invitrogen, Cat #15596018). The concentration and quality of RNA were determined using a NanoDrop 1000 spectrophotometer (Thermo). 500 ng of RNA was used to synthesize cDNA using the Quantabio qScript cDNA SuperMix (Quantabio, Cat #95048-100) according to the manufacturer's recommendations. The cDNA was diluted by 10-fold before used for qRT-PCR gene expression analysis. qRT-PCR was performed using Power SYBR Green PCR Master Mix (Applied Biosystems, Cat #4367659) and SYBR Green primers (Table 3). The Ct values of the gene of interest was normalized to the Ct value of the housekeeping control, β-actin. The fold change was then calculated using the 2^−ΔΔCt method. Sodium palmitate preparation and supplementation. To prepare BSA-palmitate conjugate, sodium palmitate (Thermo, Cat #P0500) was added to a NaCl solution and heated in a water bath while stirring. The hot palmitate solution was mixed with BSA solution, 5 mL at a time. The final volume was adjusted with 150 mM NaCl for 1 mM palmitate solution and pH was adjusted to 7.4. Sodium palmitate solution was added to cell at final concentration 500 μM and incubated for 24 hours.

[2] = test system: HIF2α and chemerin protein in 786-O and 769-P cells; assay: Immunoblots of lysates after fatty acid treatment; format: cell-based, human; conditions: 500 μM fatty acid
Procedure: Protein Extraction and Western blotting. The cells were washed with 1× ice-cold PBS (GE, Cat #SH30256.01) once before they were lysed in RIPA lysis buffer (50 mM Tris-HCl, pH 7.5; 150 mM NaCl; 0.5% NP-40; 50 mM NaF) and scraped from the plate on ice. The RIPA lysis buffer contained 1:1000 1× protease inhibitor cocktail (Sigma-Aldrich) and 1:100 1× phosphatase inhibitor (Sigma-Aldrich). The lysates were passed through a 16G needle 15 times before they were centrifuged at 4° C. for 20 minutes at 20,000×g. The protein lysates were quantified using the Pierce BCA Protein Assay Kit (Thermo) according to the manufacturer's protocols and absorbance was measured using GloMax Discover Microplate Reader (Promega). Between 50 and 100 μg of protein samples were mixed with 5×SDS Laemmli loading buffer and boiled at 95° C. for 5 minutes. Proteins were separated using 4-20% SDS-PAGE gels (Bio-Rad) and transferred onto PVDF membrane (Millipore). The membrane was blocked with TBS-T supplemented with 5% non-fat dry milk primary antibody for 45 minutes at room temperature rocking before blotting with primary antibodies at 4° C. overnight. The membrane was washed in TB S-T 3 times with 5 minutes each and blotted in secondary antibodies at room temperature for 2 hours. An Azure 300 chemiluminescent western blot imaging system (Azure biosystems) was used to visualize the membrane. […]

786-O cells [3] = assay: BODIPY 493/503 lipid droplet imaging; format: cell-based, human; conditions: chemerin-silenced 786-O cells; 50 nM recombinant chemerin protein for 18 hours
Procedure: BODIPY Lipid Droplet Imaging. Cells were plated on round glass coverslips of 12-well plates and incubated with 1 mL of DMEM supplemented with 10% FBS. The medium was removed and cells were washed with room temperature PBS, fixed with 4% formaldehyde for 30 minutes and incubated with 300 μL of 1 uM BODIPY 493/503 (Life Technologies, Cat #D3922) for 15 minutes, protected from direct light. 1 μg/mL of DAPI (Millipore) was added for nucleus staining. The z stack images were acquired using Olympus FV1000 confocal scanning microscope and analyzed using Fiji software (ImageJ).

786-O cells [4] = assay: Cell viability assay (MTT) after monoclonal antibody treatment, 786-O; format: cell-based, human; conditions: increasing concentrations of mAb, 2, 4 and 6 days
Procedure: Cell Viability Assay. After treatment with monoclonal antibodies, 786-O cells were incubated with 3-(4,5-dimethylthiazol-2-yl)-2,5-diphenylterazolium bromide (MTT, Sigma-Aldrich) to assess cell survival. Briefly, the cells were plated at density of 1000 cells/plate in 96-well plates and treated with different concentrations of monoclonal antibodies (IgG or anti-RARRES2) for indicated incubation times (2 days, 4 days and 6 days). MTT solution was diluted 5-fold in DMEM media and incubated in 37° C. incubator for 4 hours. The media was carefully removed and the precipitate was dissolved in DMSO. The solution later immediately quantified at 450 nm using the GloMax Discover Microplate Reader (Promega).

HK-2 cells = assay: Cell viability assay (MTT) after monoclonal antibody treatment, HK-2; format: cell-based, human; conditions: similar dose range of the antibody
786-O cells [5] = assay: Oil Red O (ORO) lipid droplet staining of cells; format: cell-based, human; conditions: compared to treatment with IgG
Procedure: Oil Red O (ORO) Lipid Droplet Staining. For tissue sections staining, the tissues were cryoprotected by incubating in 30% sucrose/PBS solution. After the tissues sank to the bottom of the vial, the tissues were embedded in OCT (Fisher Healthcare). Embedded tissue blocks were sectioned at 10 μm thickness and stored at −80° C. until ready for staining. Before ORO staining, the frozen sections were air dried and fixed in 10% neutral buffered formalin (Sigma-Aldrich, Cat #HT501128). After fixing in 100% propylene glycol (VWR, Cat #0575) twice, sections were stained with freshly made ORO solution (Sigma-Aldrich, Cat #00625) followed by staining for hematoxylin. Then, the slides were washed with distilled water and mounted using glycerin jelly (Sigma-Aldrich). The sections were visualized using a VS120 Virtual Slide Microscope scanner (Olympus). For cell staining, the cells plated in 12-well plates in triplicate were rinsed with PBS twice, and fixed with 10% formaldehyde for 1 hour. […] After the cells were air dried, 250 μL of isopropanol was added to the wells and the eluted solution was measured at 510 nm. Next, the cells were stained with sulforhodamine B as previously described, and measured at 564 nm using GloMax Discover Microplate Reader (Promega), as previously described.

786-O cells [6] = assay: Lipid reactive oxygen species, BODIPY 581/591 C11; format: cell-based, human; conditions: compared to treatment with IgG
Procedure: Lipid Reactive Oxygen Species. The cells were plated at 50,000 cells per well in 24-well plate. 10 uM BODIPY-581/591 C11 (Invitrogen, Cat #D3861) and 1 ug/mL DAPI (Millipore) were added to the media and incubated for 1 hour at 37° C., 5% CO2. Cells were imaged using Olympus FV1000 confocal scanning microscope and analyzed using Fiji software (ImageJ). 9 randomly selected images per condition were selected for analysis.

786-O orthotopic tumors = assay: Orthotopic 786-O tumor growth under left kidney capsule of nude mice (bioluminescence imaging); format: in vivo; conditions: for in vivo 786-O tumor growth (bioluminescence imaging): 20 mg/kg twice weekly versus IgG control mAb, n=6 each arm; for animal weight / toxicity: nude mice with orthotopic 786-O, 20 mg/kg twice weekly, weight recorded weekly
Source text: Animal Studies. All animal experiments were in compliance with National Institutes of Health guidelines and were approved by the Institutional Animal Care and Use Committee (IACUC) of the University of Miami Miller School of Medicine. Six-week-old female athymic nude mice (Charles River Laboratories) were used for xenograft studies. Mice were housed (3-5 mice per cage) on a 12-hour light/dark cycle in individually ventilated cages, and with ad libitum access to food and water. The experimental holding room had temperature (21.5° C. set point) and humidity control (40% set point), and it was equipped with HEPA-filtered air. For subcutaneous tumor growth model, cells were pelleted and resuspended in a PBS/Matrigel Matrix (Corning, Cat #356234) mix at 1:1 ratio. 2×10^6 cells in a 100 μL solution were injected subcutaneously into each flank. Once palpable tumors were established, digital calipers were used to measure tumor size twice weekly. Tumor volume was calculated using the equation V=½ (length×width^2). For orthotopic tumor growth assays, soft collagen pellets containing 1×10^6 cells were implanted orthotopically under the capsules of the left kidney. Tumors were palpated and monitored twice weekly using IVIS bioluminescence imaging (Perkin Elmer). At the end of the experiments, blood was collected and both kidneys were harvested.

[7] = test system: patient derived xenograft of kidney cancer; assay: Patient derived xenograft of kidney cancer, antibody versus cabozantinib (FIG. 20); format: in vivo; conditions: antibody 20 mg/kg twice per week versus cabo 10 mg/kg 5 times per week

CCOC(=O)c1ccc(NC2CCCCC2)c(N)c1 [Ferrostatin-1]
rescue of proliferation defect ([1]; chemerin-deficient 786-O cells, 1 μM Ferrostatin-1): rescued the proliferation defect

Clc1cccc(CN=C2Nc3ccccc3NC23CCNCC3)c1 [Liproxstatin-1]
rescue of proliferation defect ([1]; chemerin-deficient 786-O cells, 0.5 μM Liproxstatin-1): rescued the proliferation defect

CCOC(=O)[C@@]1(CCCCCCOc2ccc(Cl)cc2)CO1 [etomoxir]
rescue of DNA synthesis (EdU) (786-O and 769-P cells): rescued the reduction in DNA synthesis | rescue of DNA synthesis (EdU) (786-O and 769-P cells; listed as Etomoxir): rescues tumorigenesis | rescue of proliferation defect ([1]; chemerin-knockdown 786-O cells, 50 μM Etomoxir): rescued | rescue of proliferation defect ([1]; chemerin-knockdown 786-O cells, 50 μM Etomoxir, listed as Etomoxir): rescues proliferation defect

CCCCC/C=C\C/C=C\CCCCCCCC(=O)O [linoleic acid]
HIF2α mRNA (HIF2α mRNA in 786-O): opposite pattern | HIF2α protein [2]: opposite pattern; also recorded: decreased | chemerin protein [2]: opposite pattern; also recorded: decreased

B1: recombinant chemerin protein: recombinant chemerin protein used to rescue chemerin-silenced cells (protein, UniProt Q99969 21-157, looked up)
Retinoic acid receptor …: ELTEAQRRGLQVALEEFHKHPPVQWAFQETSVESAVDTPFPAGIFVRLEFKLQQTSCRKRDWKKPECKVRPNGRKRKCLACIKLGSEDKVLGRLVHCPIETQVLREAEEHQETQCLRVQRAGEDPHSFYFPGQFAFS
rescue of lipid deposition (BODIPY 493/503) (786-O cells [3]): partially rescued; also recorded: rescued the lipid deposition defect

B2: chemerin mAb: monoclonal antibody against chemerin; heavy chain SEQ ID NO: 3, light chain SEQ ID NO: 4 (antibody, V domains shown)
VH: MEWNWVVLFLLSLTAGVYSQGQMQQSGAELVKPGASVKLSCKTSGFTFSSSYISWLKQKPRQSLEWIAWIYAGTGGTSYNQKFTGKAQLTVDTSSSTAYMQLSSLTSEDSAIYYCASFWDSWGQGTTLTVSS
VL: MRCLAEFLGLLVLWIPGAIGDIVMTQAAPSVPVTPGESVSISCRSSKSLLHSNGNTYLYWFLQRPGQSPQLLIYRMSNLASGVPDRFSGSGSGTAFTLRISRVEAEDVGVYYCMQHLEYPLTFGAGTKLELK
cell viability (786-O cells [4]): dose-dependent reduction in cell viability | cell viability (HK-2 cells): cell viability was not affected | lipid droplets (ORO staining quantification) (786-O cells [5]): decrease in lipid droplets | lipid ROS (BODIPY 581/591 C11) (786-O cells [6]): increase in lipid ROS | in vivo 786-O tumor growth (bioluminescence imaging) (786-O orthotopic tumors): significantly reduced | in vivo 786-O tumor growth (bioluminescence imaging) (786-O orthotopic tumors; listed as monoclonal antibody (mAb) targeting chemerin): reduces ccRCC tumor burden | tumor weight upon sacrifice (786-O orthotopic tumors; 20 mg/kg twice weekly versus IgG mAb, n=6 each group): lower tumor weights | animal weight / toxicity (786-O orthotopic tumors): did not result in significant changes in animal weight | animal weight / toxicity (786-O orthotopic tumors; listed as monoclonal antibody targeting chemerin): no toxicity | efficacy compared with cabozantinib [7]: as effective as cabo
